In US20240190983A1 (JULIUS MAXIMILIANS UNIVERSIT T W RZBURG, published 2024):
Positions count from the first letter of the chain named. Names may count otherwise.

T1: Cynomolgus TNFR2 (Macaca fascicularis (cynomolgus monkey), UniProt P20333 26-461 (human entry))
T1 construct: Expressed on transiently transfected HEK293 cells; also called TNFR2-cyno; monkey TNFR2
T1 chain: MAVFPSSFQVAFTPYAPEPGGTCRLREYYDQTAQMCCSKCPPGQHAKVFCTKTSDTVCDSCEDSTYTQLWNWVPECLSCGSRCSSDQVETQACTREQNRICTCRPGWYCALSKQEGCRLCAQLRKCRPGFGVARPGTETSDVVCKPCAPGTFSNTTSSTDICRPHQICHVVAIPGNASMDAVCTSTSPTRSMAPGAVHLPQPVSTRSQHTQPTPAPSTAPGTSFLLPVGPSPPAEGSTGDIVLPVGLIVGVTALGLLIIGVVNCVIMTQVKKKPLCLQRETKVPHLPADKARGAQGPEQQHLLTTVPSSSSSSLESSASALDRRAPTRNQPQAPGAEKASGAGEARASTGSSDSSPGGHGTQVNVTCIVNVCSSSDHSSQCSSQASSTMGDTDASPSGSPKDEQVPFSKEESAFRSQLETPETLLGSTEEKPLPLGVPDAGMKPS

T2: Human TNFR2 (human, UniProt P20333 23-461)
T2 construct: On cells: HeLa-TNFR2, HT1080-Bcl2-TNFR2, transiently transfected HEK293; endogenous on Kym-1 cells; also called huTNFR2; TNFRSF1B
T2 sequence: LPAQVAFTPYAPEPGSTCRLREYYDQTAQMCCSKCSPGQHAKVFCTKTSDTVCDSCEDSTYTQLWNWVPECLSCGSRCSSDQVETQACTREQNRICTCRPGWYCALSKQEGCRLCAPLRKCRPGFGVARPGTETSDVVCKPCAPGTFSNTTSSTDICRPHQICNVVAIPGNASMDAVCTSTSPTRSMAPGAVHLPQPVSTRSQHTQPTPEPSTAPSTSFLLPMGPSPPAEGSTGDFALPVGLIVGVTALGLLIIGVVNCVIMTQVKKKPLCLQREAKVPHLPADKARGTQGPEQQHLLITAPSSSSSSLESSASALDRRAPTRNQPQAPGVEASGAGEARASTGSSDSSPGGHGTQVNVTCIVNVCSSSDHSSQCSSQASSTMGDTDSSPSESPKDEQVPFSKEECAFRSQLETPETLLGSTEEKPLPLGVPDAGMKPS

T3: Murine TNFR2 (mouse, UniProt P25119 23-474)
T3 construct: Expressed on transiently transfected HEK293 cells; also called mouse TNFR2; TNFR2(mu)
T3 sequence: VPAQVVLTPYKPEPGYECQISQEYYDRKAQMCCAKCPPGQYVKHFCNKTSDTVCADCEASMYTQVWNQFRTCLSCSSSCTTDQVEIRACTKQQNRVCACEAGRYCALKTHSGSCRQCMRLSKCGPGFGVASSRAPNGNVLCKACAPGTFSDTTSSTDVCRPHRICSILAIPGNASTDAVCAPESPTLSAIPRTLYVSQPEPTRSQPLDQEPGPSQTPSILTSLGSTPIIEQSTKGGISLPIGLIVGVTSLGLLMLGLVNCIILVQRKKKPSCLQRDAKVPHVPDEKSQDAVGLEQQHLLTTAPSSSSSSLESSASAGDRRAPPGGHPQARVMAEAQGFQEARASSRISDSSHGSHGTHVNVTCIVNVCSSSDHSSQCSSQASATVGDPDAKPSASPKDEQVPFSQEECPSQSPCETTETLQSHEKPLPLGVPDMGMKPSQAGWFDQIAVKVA

B1: VHH:C18-Fc-GpL (Fc fusion)
VHH: DVQLVESGGGSVQTGGSLTLSCAISGSTSERYCMGWFRQAPGREREGVAATSLTGRGAQFYADSVKGRFTISLDDAKNTLYLQMDSLRPDDTAVYYCAADVGFLCGYDSDNDPFYDWGQGTQVTVSS
notes: also called VHH-Fc-GpL variant of C18; not shown: The Fc domain, the C-terminal GpL reporter and the linkers or tags of the VHH-Fc-GpL construct; No entry gives the joined chain or says which Fc variant was used
B2: 3×VHH:C74-Fc-GpL (Fc fusion)
VHH: DVQLVESGGGLVQSGGSLRLSCAASGFPFSSSDMTWVRQTSGSVFEWVSDINPDGQNTRYADSVKGRFIISRDNAKSTLYLQMDSLKTDDTAVYYCAADPGSSGGSLSYWGKGTLVTVSS
notes: also called 3×VHH-Fc-GpL variant of C74; hexavalent format for C74; not shown: the listing has no entry for the 3xVHH-Fc-GpL format
B3: 3xVHH:C238-Fc-GpL (Fc fusion, not shown: a dimerising Fc or GST; small tags and cut ends)
VHH: QVQLVESGGGSVQPGGSLTLSCVDSGSAYLSYCMAWFRQAPGKEREGVAAIYYGGDSYYADSVKGRFTISQDHAKNTMYLQMNSLKPEDTAVYYCAADVGFICGYDSDNDPPNDWGQGTQVTVSS
notes: also called hexavalent 3×VHH-Fc-GpL construct of C238
B4: 3×VHH:C18-Fc-GpL (Fc fusion)
VHH: B1 VHH
notes: also called 3×VHH-Fc-GpL variant of C18; hexavalent format of C18; not shown: the listing has no entry for the 3xVHH-Fc-GpL format
B5: 3xVHH:C188-Fc-GpL (Fc fusion, not shown: a dimerising Fc or GST; small tags and cut ends)
VHH: B1 VHH with M34L, A99E
notes: also called hexavalent 3×VHH-Fc-GpL construct of C188
B6: VHH:C74-Fc-GpL (Fc fusion)
VHH: B2 VHH
notes: also called VHH-Fc-GpL variant of C74; not shown: The Fc domain, the C-terminal GpL reporter and the linkers or tags of the VHH-Fc-GpL construct; No entry gives the joined chain or says which Fc variant was used
B7: VHH:C36-Fc-GpL (Fc fusion)
VHH: HVQLVESGGGSVQAGGSLRLSCAASGFTFSSYYMSWVRQAPGKGLEWVSAIYSDDSDNYSDSVKGRFTISKDNAKNTLYLQMNSLKPEDTAMYYCAAIRIGTDQYKFWGQGTQVTVSS
notes: also called VHH-Fc-GpL format protein of C36; not shown: The Fc domain, the C-terminal GpL reporter and the linkers or tags of the VHH-Fc-GpL construct; No entry gives the joined chain or says which Fc variant was used
B8: VHH:C118-Fc-GpL (Fc fusion)
VHH: QVQLVESGGGSVQAGGSLRLSCAASGHTYRSNCMGWFRQAPGKEREGVAAMYTGTDWKYYADSVKGRFTISQDKAKNTLYLVMNNLKPDDTGVYYCAADFGFICGYDSDDDPYDAWGQGTQVTVSS
notes: also called VHH-Fc-GpL format protein of C118; not shown: The Fc domain, the C-terminal GpL reporter and the linkers or tags of the VHH-Fc-GpL construct; No entry gives the joined chain or says which Fc variant was used
B9: C29-IgG1(N297A)-LC:GpL (antibody)
light: EVKLVPRQLDYKDDDDKELDVVMTQTPLSLPVSLGDQASISCRASQSLVHSNGNTYLQWYLQKPGQSPKLLIYKVSNRFSGVPDRFSGSGSGTDFTLKISRVEAEDLGVFFCSQSTHVPFTFGSGTKLEIKGSEIKRTVAAPSVFIFPPSDEQLKSGTASVVCLLNNFYPREAKVQWKVDNALQSGNSQESVTEQDSKDSTYSLSSTLTLSKADYEKHKVYACEVTHQGLSSPVTKSFNRGECLEKPTENNEDFNIVAVASNFATTDLDADRGKLPGKKLPLEVLKEMEANARKAGCTRGCLICLSHIKCTPKMKKFIPGRCHTYEGDKESAQGGIGEAIVDIPEIPGFKDLEPMEQFIAQVDLCVDCTTGCLKGLANVQCSDLLKKWLPQRCATFASKIQGQVDKIKGAGGD
heavy: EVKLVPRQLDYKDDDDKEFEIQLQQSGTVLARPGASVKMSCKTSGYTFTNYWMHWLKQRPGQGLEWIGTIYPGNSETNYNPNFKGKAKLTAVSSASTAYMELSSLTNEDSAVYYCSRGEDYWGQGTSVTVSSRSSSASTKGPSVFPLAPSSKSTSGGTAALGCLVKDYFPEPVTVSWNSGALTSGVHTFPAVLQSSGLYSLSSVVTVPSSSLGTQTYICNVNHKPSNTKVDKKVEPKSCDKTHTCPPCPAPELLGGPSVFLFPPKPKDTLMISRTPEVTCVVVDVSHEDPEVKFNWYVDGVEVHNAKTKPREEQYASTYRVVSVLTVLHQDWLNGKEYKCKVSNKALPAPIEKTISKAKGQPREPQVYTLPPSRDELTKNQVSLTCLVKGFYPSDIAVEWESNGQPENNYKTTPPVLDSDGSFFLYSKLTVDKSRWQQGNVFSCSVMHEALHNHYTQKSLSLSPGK
notes: copies: 2 + 2
B10: C31-2-IgG1(N297A)-LC:GpL (antibody)
light: EVKLVPRQLDYKDDDDKELQAVVTQESALTTSPGETVTLTCRSSTGAVTTSNYANWVQEKPDHLFTGLIGGTNNRAPGVPARFSGSVIGDKAALTITGAQTEDEAIYFCALWYSNHWVFGGGTKLTVLGGSEIKRTVAAPSVFIFPPSDEQLKSGTASVVCLLNNFYPREAKVQWKVDNALQSGNSQESVTEQDSKDSTYSLSSTLTLSKADYEKHKVYACEVTHQGLSSPVTKSFNRGECLEKPTENNEDFNIVAVASNFATTDLDADRGKLPGKKLPLEVLKEMEANARKAGCTRGCLICLSHIKCTPKMKKFIPGRCHTYEGDKESAQGGIGEAIVDIPEIPGFKDLEPMEQFIAQVDLCVDCTTGCLKGLANVQCSDLLKKWLPQRCATFASKIQGQVDKIKGAGGD
heavy: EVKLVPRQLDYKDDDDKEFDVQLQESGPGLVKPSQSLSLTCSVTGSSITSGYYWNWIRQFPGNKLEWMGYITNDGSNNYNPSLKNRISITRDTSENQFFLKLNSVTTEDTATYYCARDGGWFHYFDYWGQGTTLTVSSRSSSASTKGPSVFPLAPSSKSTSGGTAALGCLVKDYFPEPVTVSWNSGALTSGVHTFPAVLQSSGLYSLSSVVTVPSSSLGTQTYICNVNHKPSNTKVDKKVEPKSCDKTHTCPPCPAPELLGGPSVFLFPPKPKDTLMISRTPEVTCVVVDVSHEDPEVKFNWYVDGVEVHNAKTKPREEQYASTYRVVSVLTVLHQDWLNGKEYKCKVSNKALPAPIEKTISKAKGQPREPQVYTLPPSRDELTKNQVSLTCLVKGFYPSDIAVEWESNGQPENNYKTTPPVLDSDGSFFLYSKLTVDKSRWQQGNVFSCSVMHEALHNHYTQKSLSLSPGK
notes: copies: 2 + 2
B11: (68/69)-IgG1(N297A)-LC:GpL (antibody)
light: EVKLVPRQLDYKDDDDKELDVQMTQSPSSLSASVGDRVTITCKASQDINKFIAWYQQKPGKAPKLLIHYTSTLQPGIPSRFSGSGSGRDYTFTISSLQPEDIATYYCLQYGNLWTFGGGTKVEIKGSEIKRTVAAPSVFIFPPSDEQLKSGTASVVCLLNNFYPREAKVQWKVDNALQSGNSQESVTEQDSKDSTYSLSSTLTLSKADYEKHKVYACEVTHQGLSSPVTKSFNRGECLEKPTENNEDFNIVAVASNFATTDLDADRGKLPGKKLPLEVLKEMEANARKAGCTRGCLICLSHIKCTPKMKKFIPGRCHTYEGDKESAQGGIGEAIVDIPEIPGFKDLEPMEQFIAQVDLCVDCTTGCLKGLANVQCSDLLKKWLPQRCATFASKIQGQVDKIKGAGGD
heavy: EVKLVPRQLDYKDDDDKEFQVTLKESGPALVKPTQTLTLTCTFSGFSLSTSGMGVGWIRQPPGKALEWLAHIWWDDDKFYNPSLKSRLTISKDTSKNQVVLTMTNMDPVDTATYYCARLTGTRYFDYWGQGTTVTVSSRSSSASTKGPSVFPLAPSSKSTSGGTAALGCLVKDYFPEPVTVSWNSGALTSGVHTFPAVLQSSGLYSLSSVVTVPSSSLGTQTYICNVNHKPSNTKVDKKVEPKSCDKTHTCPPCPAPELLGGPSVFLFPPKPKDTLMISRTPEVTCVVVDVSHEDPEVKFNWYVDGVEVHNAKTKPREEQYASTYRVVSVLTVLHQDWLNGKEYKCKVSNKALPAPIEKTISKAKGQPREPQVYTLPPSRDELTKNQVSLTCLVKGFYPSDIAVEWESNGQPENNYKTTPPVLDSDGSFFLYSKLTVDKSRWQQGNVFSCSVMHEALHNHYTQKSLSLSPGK
notes: Gaussia princeps luciferase (GpL) fused to the light chain; copies: 2 + 2

Target: T1, Cynomolgus TNFR2
Experiment: equilibrium binding of VHH-Fc-GpL to cells expressing cynomolgus TNFR2, 37 C; column head Affinity (ng/ml)
Description: (§1) Specific binding (open circles) was obtained by subtraction of the non-specific binding values (Hek293 cells—crosses) from the binding values for transfectants expressing human TNFR2 (total binding—closed circles). Specific binding was analyzed with the “nonlinear regression to a one-site specific binding curve” function of the GraphPad Prism5 software.
(§2) The equivalent experiment was also performed using TNFR2 from different species, namely from Mus musculus (mouse), Macaca fascicularis (cynomolgus monkey), and Chlorocebus sabaeus (African green monkey) to study the ability of the VHH regions to bind to TNFR2 from different species. The ability to cross react to TNFR2 from different species can be helpful in allowing the antibodies to be studied in various models before assessment in human patients.

Row | Binder | Kd
1 | B1 | 0.05 µg/mL

Target: T2, Human TNFR2
Experiment: equilibrium binding of 3xVHH-Fc-GpL to HEK293 cells expressing human TNFR2 (panel head Hek-293-TNFR2-human), 37 °C

Row | Binder | Kd
2 | B2 | 0.001 µg/mL
3 | B3 | 0.006 µg/mL
4 | B4 | 0.001 µg/mL
5 | B5 | 0.003 µg/mL

Target: T2, Human TNFR2
Experiment: equilibrium binding of VHH-Fc-GpL to cells expressing human TNFR2, 37 °C; HEK293 cells as unspecific binding; one-site fit of specific binding

Row | Binder | Kd
6 | B6 | 0.08 µg/mL
7 | B7 | 3.2 µg/mL
8 | B1 | 0.23 µg/mL
9 | B8 | 0.13 µg/mL

Target: T1, Cynomolgus TNFR2
Experiment: equilibrium binding of VHH-Fc-GpL to cells expressing cynomolgus TNFR2, 37 C
Description: as §1, §2

Row | Binder | binding result
10 | B6 | no binding

Target: T2, Human TNFR2
Experiment: binding of 3xVHH-Fc-GpL to HEK293 cells transiently transfected with TNFR2; empty-vector cells as unspecific binding

Row | Binder | Kd
11 | B2 | 0.035 µg/mL
12 | B3 | 0.008 µg/mL
13 | B4 | 0.006 µg/mL
14 | B5 | 0.005 µg/mL

Target: T3, Murine TNFR2
Experiment: equilibrium binding of 3xVHH-Fc-GpL to HEK293 cells expressing murine TNFR2 (panel head Hek-293-TNFR2-murine), 37 °C

Row | Binder | Kd
15 | B3 | 0.1 µg/mL
16 | B4 | 0.18 µg/mL
17 | B5 | 0.07 µg/mL

Target: T3, Murine TNFR2
Experiment: equilibrium binding of VHH-Fc-GpL to cells expressing mouse TNFR2, 37 C
Description: as §1, §2

Row | Binder | binding result
18 | B6 | no binding
19 | B7 | no binding
20 | B8 | no binding

Target: T4, African green monkey TNFR2 (Chlorocebus sabaeus (African green …))
T4 construct: whole, on cells
Experiment: equilibrium binding of VHH-Fc-GpL to cells expressing African green monkey TNFR2, 37 C; column head Affinity (ng/ml)
Description: as §1, §2

Row | Binder | Kd
21 | B6 | 0.06 µg/mL
22 | B7 | 0.08 µg/mL
23 | B1 | 0.06 µg/mL
24 | B8 | 0.1 µg/mL

Target: T2, Human TNFR2
Experiment: equilibrium binding of the GpL fusion protein to HeLa-TNFR2 cells, 37 °C; unspecific binding on HeLa cells subtracted; cell-bound luciferase
Description: FIG. 11—Binding properties of TNFR2-specific antibodies. (A) Equilibrium binding of the indicated anti-TNFR2 antibody GpL fusion proteins to cell expressed human TNFR2 at 37° C. (B) HeLa-TNFR2 cells were pretreated with the indicated amounts of anti-TNFR2 antibodies or remained untreated. […] Binding of the various constructs to untransfected HeLa cells was analyzed to obtain unspecific binding values.
Affinity of TNFR2-specific antibodies and antibody variants were also evaluated with HeLa cells and HeLa cells stably expressing human TNFR2. HeLa and HeLa-TNFR2 cells were seeded out in 24-well plates. Next day, the cells were challenged with the indicated concentrations of GpL-labelled TNFR2 antibodies for 1 hour at 37° C. To eliminate the unbound antibodies, the cells were washed 10 times with ice-cold PBS. The cells were then scratched and collected in 50 μl of medium (RPMI, 0.5% FCS) and transferred to black 96-well plates for measurement as mentioned above. The specific binding of different TNFR2-specific antibodies/antibody variants was calculated by subtracting the unspecific binding (values obtained from HeLa cells) from total binding (obtained from HeLa-TNFR2). The resulting values were fitted using the non-linear regression analysis option of GraphPad Prism 5.

Row | Binder | Bmax | Kd
25 | B9 | 250 kRLU | 0.8 µg/mL
26 | B10 | 890 kRLU | 2.19 µg/mL
27 | B11 | 1130 kRLU | 0.044 µg/mL
